Source: US10994047B2, “Peptide dendrimers comprising fibrinogen-binding peptides” (HAEMOSTATIX LIMITED, priority 2014, dated 2021)
Where no end group is shown, it is not given here.

Tests used:
[1] = target: T1, fibrinogen hole 'a' and hole 'b' (Homo sapiens, UniProt P02675+P02679); details: cited from earlier work
T1 sequence (P02679 27-433 limits assumed): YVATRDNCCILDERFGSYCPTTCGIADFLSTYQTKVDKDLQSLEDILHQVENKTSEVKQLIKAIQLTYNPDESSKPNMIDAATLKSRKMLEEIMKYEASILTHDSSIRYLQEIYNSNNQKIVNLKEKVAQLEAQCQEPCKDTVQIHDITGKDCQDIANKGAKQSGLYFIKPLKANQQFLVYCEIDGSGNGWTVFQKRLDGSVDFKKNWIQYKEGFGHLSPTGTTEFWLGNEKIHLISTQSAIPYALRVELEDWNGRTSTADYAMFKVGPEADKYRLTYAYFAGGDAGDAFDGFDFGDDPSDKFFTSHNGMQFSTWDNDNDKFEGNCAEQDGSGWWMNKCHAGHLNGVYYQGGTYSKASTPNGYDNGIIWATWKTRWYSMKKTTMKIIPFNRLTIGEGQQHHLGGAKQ
T1 sequence (P02675 31-491): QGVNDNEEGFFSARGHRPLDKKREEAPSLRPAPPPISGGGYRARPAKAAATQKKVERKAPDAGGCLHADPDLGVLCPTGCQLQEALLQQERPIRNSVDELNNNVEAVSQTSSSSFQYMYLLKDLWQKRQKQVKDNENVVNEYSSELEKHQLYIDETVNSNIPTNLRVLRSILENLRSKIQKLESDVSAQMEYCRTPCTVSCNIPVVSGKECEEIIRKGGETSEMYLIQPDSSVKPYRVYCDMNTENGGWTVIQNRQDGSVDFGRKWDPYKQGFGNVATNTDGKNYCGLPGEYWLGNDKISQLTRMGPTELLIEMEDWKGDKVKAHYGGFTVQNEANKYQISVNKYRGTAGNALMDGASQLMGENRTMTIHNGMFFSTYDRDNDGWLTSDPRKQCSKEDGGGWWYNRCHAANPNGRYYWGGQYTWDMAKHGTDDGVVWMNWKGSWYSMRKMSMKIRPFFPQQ
T1 sequence (P02671 20-629 partner limits assumed): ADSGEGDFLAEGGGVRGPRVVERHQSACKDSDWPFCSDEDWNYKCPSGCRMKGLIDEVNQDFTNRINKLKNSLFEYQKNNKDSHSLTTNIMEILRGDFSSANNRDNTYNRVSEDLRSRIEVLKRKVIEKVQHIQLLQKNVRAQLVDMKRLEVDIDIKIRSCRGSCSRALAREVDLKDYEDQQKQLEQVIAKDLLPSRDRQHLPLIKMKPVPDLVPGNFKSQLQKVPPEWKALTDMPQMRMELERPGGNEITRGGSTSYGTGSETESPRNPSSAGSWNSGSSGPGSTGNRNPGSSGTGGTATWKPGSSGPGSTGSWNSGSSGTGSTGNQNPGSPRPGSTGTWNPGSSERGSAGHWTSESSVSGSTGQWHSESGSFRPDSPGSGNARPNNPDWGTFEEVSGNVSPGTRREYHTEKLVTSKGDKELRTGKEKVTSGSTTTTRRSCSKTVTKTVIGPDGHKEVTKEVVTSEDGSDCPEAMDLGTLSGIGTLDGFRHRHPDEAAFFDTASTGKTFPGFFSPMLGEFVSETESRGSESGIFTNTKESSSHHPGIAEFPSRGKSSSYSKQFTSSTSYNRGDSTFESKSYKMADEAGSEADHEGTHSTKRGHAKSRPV

[2] = target: T2, fibrinogen in human plasma (Homo sapiens, UniProt P02675+P02679); assay: Polymerisation of fibrinogen in human plasma, clotting time; assay type: biochemical; details: 37° C.; for ability to polymerise fibrinogen in human plasma: 30 μL dendrimer 0.25 mg/ml added to 100 μL human plasma, FIG. 7
T2 construct: from tissue; host or cells: human plasma
T2 sequence (P02679 27-433 limits assumed): T1 sequence (P02679 27-433 limits assumed)
T2 sequence (P02675 31-491): T1 sequence (P02675 31-491)
T2 sequence (P02671 20-629 partner limits assumed): T1 sequence (P02671 20-629 partner limits assumed)
Experimental: 30 μL of each dendrimer (at a concentration of 0.25 mg/ml) was added to 100 μL human plasma at 37° C., and polymerisation of fibrinogen was determined using a Sigma Amelung KC4 Delta coagulation analyzer.

[3] = target: T3, purified human fibrinogen (Homo sapiens, UniProt P02675+P02679); assay: Copolymerisation of peptide dendrimer with purified fibrinogen, clotting time on KC4 Delta coagulation analyser; assay type: biochemical
T3 sequence (P02679 27-433 limits assumed): T1 sequence (P02679 27-433 limits assumed)
T3 sequence (P02675 31-491): T1 sequence (P02675 31-491)
T3 sequence (P02671 20-629 partner limits assumed): T1 sequence (P02671 20-629 partner limits assumed)
Experimental: The ability of Peptide Dendrimer No. 12 to polymerise fibrinogen was assessed. 30 μl of dendrimer in solution, at concentration ranging from 0.005-2 mg/ml, was added to 100 μl purified human fibrinogen at 3 mg/ml (the level of fibrinogen found in the blood). Polymerisation of fibrinogen was analysed using a Sigma Amelung KC4 Delta coagulation analyser.
The ability of Peptide Dendrimer Nos. 4, 5, 10, 11, and 12 to copolymerise with fibrinogen was assessed using the same method described in Example 2. The concentration of each dendrimer was varied from 0.005-0.5 mg/ml.
The ability of the dendrimers to copolymerise with fibrinogen was assessed using the same method described in Example 2, for a concentration of each dendrimer ranging from 0.005-0.5 mg/ml.

human fibrinogen = target: T4, human fibrinogen (Homo sapiens, UniProt P02675+P02679); assay: Clotting activity of dendrimers extracted from gamma-irradiated gelatin paste; assay type: biochemical; details: 37° C.
T4 sequence (P02679 27-433 limits assumed): T1 sequence (P02679 27-433 limits assumed)
T4 sequence (P02675 31-491): T1 sequence (P02675 31-491)
T4 sequence (P02671 20-629 partner limits assumed): T1 sequence (P02671 20-629 partner limits assumed)
Experimental: 2 ml of solution of Peptide Dendrimer No. 12 or 13 was mixed with SURGIFLO Haemostatic Matrix (a hydrated flowable gelatin matrix) to form a paste of each peptide. Each paste was sterilised by irradiation with ^60Co gamma rays at a dose of 30 kGy, and then stored at room temperature. Samples of the sterilised pastes were used for testing after storage for two and four weeks.
After storage, peptide dendrimers were extracted from each paste using 10 mM HEPES buffer. 30 μL of each extract (with a peptide concentration of about 0.25 mg/ml) was added to 100 μL of human fibrinogen at 3 mg/ml, and the ability of each dendrimer to polymerise fibrinogen (the ‘clotting’ activity) at 37° C. was determined using a Sigma Amelung KC4 Delta coagulation analyser. The polymerisation activity of non-irradiated control samples was also determined.

[4] = dendrimer 0.005-0.5 mg/ml, fibrinogen 3 mg/ml, FIG. 2 and 3

With “GHRPY- (SEQ ID NO: 11) (listed as Homo sapiens)” as the substance, how does the “binding preference for hole 'a' or hole 'b' of fibrinogen” value (shortened to “binding preference”) [1] read?
The value was “binds strongly and preferentially to the ‘b’ hole of fibrinogen”.

Which “binding preference” value [1] does the source give for GPRP- (SEQ ID NO: 1) here?
Its value is “binds strongly and preferentially to the ‘a’ hole of fibrinogen”.

Which “binding preference” value [1] does the source give for “GPRPFPA (listed as Homo sapiens) [GPRPFPA (SEQ ID NO: 3)]” here?
Its value is “binds with high preference for hole ‘a’ in fibrinogen”.

Which “binding preference” value [1] does the source give for “GPRPG (SEQ ID NO: 15) ((5)..(5) Carbox-terminal end may comprise an amide group; listed as Homo sapiens)” here?
The value was “binds to hole ‘a’ and hole ‘b’ of fibrinogen, but with some preference for hole ‘a’”.

For “Peptide Dendrimer No. 8: three-branch dendrimer: two peptides GPRPG, third APFPRPG attached by its amino-terminal end, carboxy-terminal amide (chain 2 APFPRPG-NH2; also: three-branch dendrimer core: two GPRPG, APFPRPG attached by its amino-terminal end; listed as Homo sapiens)”, which “ability to polymerise fibrinogen in human plasma” value (from here on “ability to polymerise fibrinogen”) [2] is on record?
The value was “not able to polymerise fibrinogen in human plasma”.

What about the “ability to copolymerise with fibrinogen (clotting time)” value (“ability to copolymerise” below) [3, 4] of the same substance?
The value was “able to copolymerise with fibrinogen”.

For “Peptide Dendrimer No. 9: three-branch dendrimer: two peptides GPRPFPA, third APFPRPG attached by its amino-terminal end, carboxy-terminal amide (chain 2 APFPRPG-NH2; also: three-branch dendrimer core: two GPRPFPA, APFPRPG attached by its amino-terminal end; listed as Homo sapiens)”, which “ability to polymerise fibrinogen” value [2] is on record?
Its value is “not able to polymerise fibrinogen in human plasma”.

What about the “ability to copolymerise” value [3, 4] of the same substance?
The value was “very active in copolymerising with fibrinogen”.

Which “ability to polymerise fibrinogen” value [2] does the source give for “Peptide Dendrimer No. 10: three-branch dendrimer, three GPRPG peptides each attached by carboxy-terminal end to the branched core (also: three copies of chain 1 attached by C-termini to a branched core; listed as Homo sapiens)” here?
The value was “able to polymerise fibrinogen in human plasma”.

What about the “clotting times compared between dendrimers” value ([3]; concentrations below ~0.125 mg/ml dendrimer, FIG. 2) of the same substance?
The value was “faster clotting times than dendrimer no. 4”.

Which “Clotting activity, Non-irradiated control” value (human fibrinogen; extract from gelatin paste, about 0.25 mg/ml peptide, human fibrinogen 3 mg/ml, not irradiated) does the source give for “Peptide Dendrimer No. 12: five-arm dendrimer, GPRPG- peptides; branched core with five consecutive lysine residues linked through side chains (chain KKKKK; also: five-arm dendrimer of GPRPG on core of five lysines linked through side chains, attachment places not given here)” here?
Its value is 1 s.

What about the “Clotting activity, Storage for 2 weeks post irradiation” value (human fibrinogen; paste irradiated 30 kGy 60Co gamma, stored 2 weeks at room temperature, extract about 0.25 mg/ml, fibrinogen 3 mg/ml) of the same substance?
The value was 1 s.

And the “Clotting activity, Storage for 4 weeks post irradiation” value (human fibrinogen; paste irradiated 30 kGy 60Co gamma, stored 4 weeks at room temperature, extract about 0.25 mg/ml, fibrinogen 3 mg/ml)?
The value was 1 s.

What about the “ability to polymerise fibrinogen” value [2] of the same substance?
Its value is “able to polymerise fibrinogen in human plasma”.

And the “clotting time in human plasma” value ([2]; dendrimer 0.25 mg/ml, human plasma)?
Its value is “less than one”.

And the “ability to copolymerise” value ([3]; dendrimer 0.005-2 mg/ml, 100 μl purified human fibrinogen 3 mg/ml, FIG. 1)?
Its value is “able to copolymerise with fibrinogen almost instantaneously”.

And the clotting ([3]; dendrimer range ~0.02-0.5 mg/ml, FIG. 2)?
The clotting was “almost instantaneous clotting”.
